The values that follow come from publication PMC7289447.

In one assay the target is T1, Hsc20 Q46Bpa, P53193.
T1 chain: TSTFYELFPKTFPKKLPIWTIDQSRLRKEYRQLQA
Kind of assay: site-specific Bpa photo-crosslinking, SDS-PAGE band quantification. The following applies: chain shown with the change; in the presence of ATP; UV irradiation; parent: est. 1.0; read off a plot.

A further assay addresses T2, Hsc20 M51Bpa, P53193.
T2 chain: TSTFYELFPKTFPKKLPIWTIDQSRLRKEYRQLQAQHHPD
The description is as above. The conditions noted are these: chain shown with the change; in the presence of ATP; UV irradiation; parent: est. 1.0; read off a plot.

B1: Ssq1 wild-type D246A; E253A (protein)
chain: MLKSGRLNFLKLNINSRLLYSTNPQLTKKVIGIDLGTTNSAVAYIRDSNDKKSATIIENDEGQRTTPSIVAFDVKSSPQNKDQMKTLVGMAAKRQNAINSENTFFATKRLIGRAFNDKEVQRDMAVMPYKIVKCESNGQAYLSTSNGLIQSPSQIASILLKYLKQTSEEYLGEKVNLAVITVPAYFNDSQRQATKDAGKLAGLNVLRVINEPTAAALSFGIDDKRNNGLIAVYDLGGGTFDISILAIEDGVFAVRATNGDTHLGGEDFDNVIVNYIIDTFIHENPEITREEITKNRETMQRLKDVSERAKIDLSHVKKTFIELPFVYKSKHLRVPMTEEELDNMTLSLINRTIPPVKQALKDADIEPEDIDEVILVGGMTRMPKIRSVVKDLFGKSPNSSVNPDETVALGAAIQGGILSGEIKNVLLLDVTPLTLGIETFGGAFSPLIPRNTTVPVKKTEIFSTGVDGQAGVDIKVFQGERGLVRNNKLIGDLKLTGITPLPKGIPQIYVTFDIDADGIINVSAAEKSSGKQQSITVIPNSGLSEEEIAKLIEEANANRAQDNLIRQRLELISKADIMISDTENLFKRYEKLISSEKEYSNIVEDIKALRQAIKNFKANENDMSIDVNGIKKATDALQGRALKLFQSATKNQQNQGK
On to B1, for which the ratio to parent turned out to be 0.22 with Hsc20 Q46Bpa, P53193 and 0.11 in the assay with Hsc20 M51Bpa, P53193.

B2: Ssq1 wild-type E248A; D249A (protein)
chain: MLKSGRLNFLKLNINSRLLYSTNPQLTKKVIGIDLGTTNSAVAYIRDSNDKKSATIIENDEGQRTTPSIVAFDVKSSPQNKDQMKTLVGMAAKRQNAINSENTFFATKRLIGRAFNDKEVQRDMAVMPYKIVKCESNGQAYLSTSNGLIQSPSQIASILLKYLKQTSEEYLGEKVNLAVITVPAYFNDSQRQATKDAGKLAGLNVLRVINEPTAAALSFGIDDKRNNGLIAVYDLGGGTFDISILDIAAGVFEVRATNGDTHLGGEDFDNVIVNYIIDTFIHENPEITREEITKNRETMQRLKDVSERAKIDLSHVKKTFIELPFVYKSKHLRVPMTEEELDNMTLSLINRTIPPVKQALKDADIEPEDIDEVILVGGMTRMPKIRSVVKDLFGKSPNSSVNPDETVALGAAIQGGILSGEIKNVLLLDVTPLTLGIETFGGAFSPLIPRNTTVPVKKTEIFSTGVDGQAGVDIKVFQGERGLVRNNKLIGDLKLTGITPLPKGIPQIYVTFDIDADGIINVSAAEKSSGKQQSITVIPNSGLSEEEIAKLIEEANANRAQDNLIRQRLELISKADIMISDTENLFKRYEKLISSEKEYSNIVEDIKALRQAIKNFKANENDMSIDVNGIKKATDALQGRALKLFQSATKNQQNQGK
Take B2: the ratio to parent in the assay with Hsc20 Q46Bpa, P53193 was 0.28; with Hsc20 M51Bpa, P53193 it was 0.22.
